Source: patent US20260167959A1, “APTAZYME-BASED REGULATABLE GENE EXPRESSION SYSTEMS” (REJUVENATE BIO INC, priority 2022, published 2026)
Substitutions are numbered along the chain they refer to.

B1: RA466 (nucleic acid)
DNA: GCGCGTCCTGGATTCGCGGAACGGAATACCAGCATCGTCTTGATGCCCTTGGAAGTCCGACGCGTACATCCAGCTGACGAGTCCCAAATAGGACGAAACGCGC
modifications: expressed or natural sequence
B2: RA465 (nucleic acid)
DNA: GCGCGTCCTGGATTCGCGGAAACGCGTACATCCAGCTGACCGAGAATACCAGCATCGTCTTGATGCCCTTGGAAGTCTCGGAGTCCCAAATAGGACGAAACGCGC
modifications: expressed or natural sequence
B3: RA473 (nucleic acid)
DNA: GCGCGTCCTGGATTCGCGGAAACGCGTACATCCAGCTGACGAGTCCCAAATAGTGATACCAGCATCGTCTTGATGCCCTTGGCAGCACTAGGACGAAACGCGC
modifications: expressed or natural sequence
B4: RA475 (nucleic acid)
DNA: GCGCGTCCTGGATTCGCGGAAACGCGTACATCCAGCTGACGAGTCCCAAATAGGACGAAACGCGAGAATACCAGCATCGTCTTGATGCCCTTGGAAGTCTCGC
modifications: chemistry not given here
B5: RA469 (nucleic acid)
DNA: GCGAGAATACCAGCATCGTCTTGATGCCCTTGGAAGTCTCGCGCGTCCTGGATTCGCGGAAACGCGTACATCCAGCTGACGAGTCCCAAATAGGACGAAACGCGC
modifications: expressed or natural sequence
B6: RA472 (nucleic acid)
DNA: GCGCGTCCTGGATTCGCGGAAACGCGTACATCCAGCTGACGAGTCCCAAATAGAGAATACCAGCATCGTCTTGATGCCCTTGGAAGTCTCGGACGAAACGCGC
modifications: expressed or natural sequence
B7: RA470 (nucleic acid)
DNA: GCGCGTCCTGGATTCGCGGAAACCGAGAATACCAGCATCGTCTTGATGCCCTTGGAAGTCTCGGCGTACATCCAGCTGACGAGTCCCAAATAGGACGAAACGCGC
modifications: expressed or natural sequence
B8: RA462 (nucleic acid)
DNA: GCGCGTCCTGGATTCGCGCCGGAATACCAGCATCGTCTTGATGCCCTTGGAAGTCCGGGAAACGCGTACATCCAGCTGACGAGTCCCAAATAGGACGAAACGCGC
modifications: expressed or natural sequence
B9: RA461 (nucleic acid)
DNA: GCGCGTCCTGGATTCGCGGAAACGCGTACATCCAGGAGAATACCAGCATCGTCTTGATGCCCTTGGAAGTCTCCTGACGAGTCCCAAATAGGACGAAACGCGC
modifications: expressed or natural sequence
B10: RA460 (nucleic acid)
DNA: GCGCGTCCTGGATTCGCAGTGATACCAGCATCGTCTTGATGCCCTTGGCAGCACTGGAAACGCGTACATCCAGCTGACGAGTCCCAAATAGGACGAAACGCGC
modifications: expressed or natural sequence
B11: RA468 (nucleic acid)
DNA: GCGCGTCCTGGATTCGCGGAAACGCGTACATCCAGCCGAGAATACCAGCATCGTCTTGATGCCCTTGGAAGTCTCGTGACGAGTCCCAAATAGGACGAAACGCGC
modifications: expressed or natural sequence; listed as DNA, chemistry not fully specified
B12: RA476 (nucleic acid)
DNA: GCGCGTCCTGGATTCGCGGAAACGCGTACATCCAGCTGACGAGTCCCAAATAGGACGAAAAGAATACCAGCATCGTCTTGATGCCCTTGGAAGTCTCGCGC
modifications: expressed or natural sequence
B13: RA467 (nucleic acid)
DNA: GCGCGTCCTGGATTCGCGGAAACGAGAATACCAGCATCGTCTTGATGCCCTTGGAAGTCTCGTACATCCAGCTGACGAGTCCCAAATAGGACGAAACGCGC
modifications: expressed or natural sequence
B14: RA471 (nucleic acid)
DNA: GCGCGTCCTGGATTCGCGGAAACGCGTACATCCAGCTGACGAGTCCCAAATAGGACCGAGAATACCAGCATCGTCTTGATGCCCTTGGAAGTCTCGGAAACGCGC
modifications: expressed or natural sequence
B15: RA459 (nucleic acid)
DNA: GCGCGTCCTGGATTCGCGGAAACGCGTACATCCAGCTGACGAGTCCCAAATAGGACGAAGGAATACCAGCATCGTCTTGATGCCCTTGGAAGTCCACGCGC
modifications: expressed or natural sequence
B16: RA464 (nucleic acid)
DNA: GCGCGTCCTGGAGTGATACCAGCATCGTCTTGATGCCCTTGGCAGCACTATTCGCGGAAACGCGTACATCCAGCTGACGAGTCCCAAATAGGACGAAACGCGC
modifications: expressed or natural sequence
B17: RA474 (nucleic acid)
DNA: GCGCGTCCTGGATTCGCGGAAACGCGTACATCCAGCTGACGAGTCCCAAATAGGACGAAACGCGCGGAATACCAGCATCGTCTTGATGCCCTTGGAAGTCCGC
modifications: expressed or natural sequence
B18: RA463 (nucleic acid)
DNA: GCGCGTCCTGGATTCGCGGAAACGCGTACATCCAGCTGACGAGTCGAGAATACCAGCATCGTCTTGATGCCCTTGGAAGTCTCGCCCAAATAGGACGAAACGCGC
modifications: expressed or natural sequence
B19: RA049 (nucleic acid)
DNA: GCGCGTCCTGGATTCGCGGAAACGCGTACATAGAATACCAGCATCGTCTTGATGCCCTTGGAAGTCTCCAGCTGACGAGTCCCAAATAGGACGAAACGCGC
modifications: expressed or natural sequence
B20: RA045 (nucleic acid)
DNA: GAGAATACCAGCATCGTCTTGATGCCCTTGGAAGTCTCGCGCGTCCTGGATTCGCGGAAACGCGTACATCCAGCTGACGAGTCCCAAATAGGACGAAACGCGC
modifications: expressed or natural sequence
B21: RA053 (nucleic acid)
DNA: B9 DNA with G36A, A37G, G38T, A39G, A67C, T70C, C71A, T72C, C73T
modifications: expressed or natural sequence
B22: RA051 (nucleic acid)
DNA: GCGCGTCCTGGATTCGCGGAAACGCGTACATCCAGCTGACGAGTCCCAAATAGGACGAAACCGAGAATACCAGCATCGTCTTGATGCCCTTGGAAGTCTCGGCGC
modifications: expressed or natural sequence
B23: RA046 (nucleic acid)
DNA: GCGCGTCCTGGATTCGCGGAAACGCGTACATCCAGCTGACGAGTCCGGAATACCAGCATCGTCTTGATGCCCTTGGAAGTCCGCCAAATAGGACGAAACGCGC
modifications: expressed or natural sequence
B24: RA047 (nucleic acid)
DNA: GCGCGTCCTGGATTCGCGGAAACGCGTACATCCAGCTGACGAGTCCCAGGAATACCAGCATCGTCTTGATGCCCTTGGAAGTCCAATAGGACGAAACGCGC
modifications: expressed or natural sequence
B25: RA050 (nucleic acid)
DNA: GCGCGTCCTGGATTCGCGGAAACGCGTACATCCAGCTGACGAGAATACCAGCATCGTCTTGATGCCCTTGGAAGTCTCGCGAGTCCCAAATAGGACGAAACGCGC
modifications: expressed or natural sequence
B26: RA052 (nucleic acid)
DNA: GCGCGTCCTGGATTCGCGGAAACGCGTACATCCAGCTGACGAGAGTGATACCAGCATCGTCTTGATGCCCTTGGCAGCACTTCCCAAATAGGACGAAACGCGC
modifications: expressed or natural sequence
B27: RA004: exemplary aptazyme of the T3H48 aptazyme variant library (nucleic acid)
DNA: GCGCGTCCTGGATTCGCGGAAACGCGTACATCCAGCTGACGAGTCCCAAATAGGCCGGAATACCAGCATCGTCTTGATGCCCTTGGAAGTCCGGACGAAACGCGC
modifications: expressed or natural sequence
notes: exemplary aptazyme of the T3H48 aptazyme variant library
B28: RA048 (nucleic acid)
DNA: GCGCGTCCTGGATTCGCGGAAACGCGTACATCCAGCTGACGCGAGAATACCAGCATCGTCTTGATGCCCTTGGAAGTCTCGAGTCCCAAATAGGACGAAACGCGC
modifications: expressed or natural sequence

Each molecule was assayed on Renilla luciferase RNA (assay: Barcoded aptazyme variant library screen: un-cleaved Renilla luciferase RNA by barcode read counts, HEK293-T cells). Settings: un-cleaved Renilla luciferase RNA by barcode read counts; with 1 mM theophylline (ON) over without theophylline (OFF); HEK293-T cells; triplicate.
Type: cell-based
Method in brief: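 Barcode sequencing of cDNA versus DNA, normalized per aptazyme, gave the un-cleaved Renilla luciferase RNA fraction and fold-change with versus without theophylline (triplicates). Library: T3H48 ribozyme with one of seven theophylline aptamer variants inserted at each position, placed in the Renilla 3′ UTR of a dual-luciferase vector.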

Fold change in RNA expression between the ON state and the OFF state, 0.4:
B1
B2
B5
B7
B8
B11
B13
B14
B16
B18

Fold change in RNA expression between the ON state and the OFF state, 0.3:
B3
B4
B6
B17

Fold change in RNA expression between the ON state and the OFF state, 0.5:
B9
B10
B15

Fold change in RNA expression between the ON state and the OFF state, 0.2:
B12

Same assay, conditions: un-cleaved Renilla luciferase RNA, HEK293-T cells cultured with 1 mM theophylline (ON) over without theophylline (OFF); barcode read counts, triplicate

Fold change in RNA expression between the ON state and the OFF state, 5.3 fold:
B27

Fold change in RNA expression between the ON state and the OFF state, 2.0 fold:
B19
B20
B21
B22
B23
B24
B25
B26
B28
